The labels stand for the following.
B1: GpH7-A5/GpH7-B3 variant Q295_11K/GpL16-k0 (antibody, human IgG1, kappa)
heavy 1: not shown
heavy 2: not shown
light: DIVMTQSPLSLPVTPGEPASISCQASESLVHSNRNTYLHWYLQKPGQSPQLLIYKVSNRFSGVPDRFSGSGSGTDFTLKISRVEAEDVGVYYCSQNTHVPPTFGQGTKVEIERTVAAPSVFIFPPSDEQLKSGTASVVCLLNNFYPREAKVQWKVDNALQSGNSQESVTEQDSKDSTYSLSSTLTLSKADYEKHKVYACEVTHQGLSSPVTKSFNRGEC
notes: heterodimerized anti-glypican-3 IgG1; alteration in the GpH7-B3 chain only; also called He Ab
B2: GpH7-A5/GpH7-B3 variant S324_15Y/GpL16-k0 (antibody, human IgG1, kappa)
heavy 1: not shown
heavy 2: not shown
light: B1 light
notes: as for B1
B3: GpH7-A5/GpH7-B3 variant Q295_13S/GpL16-k0 (antibody, human IgG1, kappa)
heavy 1: not shown
heavy 2: not shown
light: B1 light
notes: as for B1
B4: GpH7-A5/GpH7-B3 variant S324_14T/GpL16-k0 (antibody, human IgG1, kappa)
heavy 1: not shown
heavy 2: not shown
light: B1 light
notes: as for B1
B5: GpH7-A5/GpH7-B3 variant S324_18N/GpL16-k0 (antibody, human IgG1, kappa)
heavy 1: not shown
heavy 2: not shown
light: B1 light
notes: as for B1
B6: GpH7-A5/GpH7-B3 variant Q295_12R/GpL16-k0 (antibody, human IgG1, kappa)
heavy 1: not shown
heavy 2: not shown
light: B1 light
notes: as for B1
B7: GpH7-A5/GpH7-B3 variant S324_10E/GpL16-k0 (antibody, human IgG1, kappa)
heavy 1: not shown
heavy 2: not shown
light: B1 light
notes: as for B1
B8: GpH7-A5/GpH7-B3 variant S324_16H/GpL16-k0 (antibody, human IgG1, kappa)
heavy 1: not shown
heavy 2: not shown
light: B1 light
notes: as for B1
B9: GpH7-A5/GpH7-B3 variant S324_09D/GpL16-k0 (antibody, human IgG1, kappa)
heavy 1: not shown
heavy 2: not shown
light: B1 light
notes: as for B1
B10: GpH7-A5/GpH7-B3 variant S324_20W/GpL16-k0 (antibody, human IgG1, kappa)
heavy 1: not shown
heavy 2: not shown
light: B1 light
notes: as for B1
B11: GpH7-A5/GpH7-B3 variant S324_08L/GpL16-k0 (antibody, human IgG1, kappa)
heavy 1: not shown
heavy 2: not shown
light: B1 light
notes: as for B1
B12: GpH7-A5/GpH7-B3 variant S324_11K/GpL16-k0 (antibody, human IgG1, kappa)
heavy 1: not shown
heavy 2: not shown
light: B1 light
notes: as for B1
B13: GpH7-A5/GpH7-B3 variant Q295_14T/GpL16-k0 (antibody, human IgG1, kappa)
heavy 1: not shown
heavy 2: not shown
light: B1 light
notes: as for B1
B14: GpH7-A5/GpH7-B3 variant S324_12R/GpL16-k0 (antibody, human IgG1, kappa)
heavy 1: not shown
heavy 2: not shown
light: B1 light
notes: as for B1
B15: GpH7-A5/GpH7-B3 variant Q295_15Y/GpL16-k0 (antibody, human IgG1, kappa)
heavy 1: not shown
heavy 2: not shown
light: B1 light
notes: as for B1
B16: GpH7-A5/GpH7-B3 variant S324_19Q/GpL16-k0 (antibody, human IgG1, kappa)
heavy 1: not shown
heavy 2: not shown
light: B1 light
notes: as for B1
B17: GpH7-A5/GpH7-B3 variant A330_05P/GpL16-k0 (antibody, human IgG1, kappa)
heavy 1: not shown
heavy 2: not shown
light: B1 light
notes: heterodimerized IgG1, mutation in one H chain only; also called He Ab
B18: GpH7-A5/GpH7-B3 variant L328_09D/GpL16-k0 (antibody, human IgG1, kappa)
heavy 1: not shown
heavy 2: not shown
light: B1 light
notes: as for B17

T1 sequence (P12314 16-292): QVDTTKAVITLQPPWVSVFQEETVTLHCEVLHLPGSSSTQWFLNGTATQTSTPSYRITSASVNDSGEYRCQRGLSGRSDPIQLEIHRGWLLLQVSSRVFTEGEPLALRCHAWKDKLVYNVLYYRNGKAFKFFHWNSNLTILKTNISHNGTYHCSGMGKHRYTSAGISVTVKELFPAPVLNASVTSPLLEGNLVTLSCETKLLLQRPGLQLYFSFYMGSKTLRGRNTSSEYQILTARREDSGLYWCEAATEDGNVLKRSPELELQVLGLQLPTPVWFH

One assay concerns the target T1, FcγRIa extracellular domain with C-terminal His tag (human, UniProt P12314 16-292).
T1 construct: extracellular domain; soluble receptor expressed in FreeStyle293 cells, used as analyte in Biacore; also called FcgRI; 1a; not shown: His tag attached to the C terminus
In words: SPR (Biacore), antibody captured on antigen peptide chip, FcγR as analyte; relative binding. (In general: Surface plasmon resonance follows binding to a sensor surface in real time, without labels.)
In the case of B1, the He/Con_1a is 101 % of control GpH7-A5/GpH7-B3/GpL16-k0 (=100).

For B2, the He/Con_1a is 114 % of control GpH7-A5/GpH7-B3/GpL16-k0 (=100).

For B3, the He/Con_1a is 102 % of control GpH7-A5/GpH7-B3/GpL16-k0 (=100).

For B4, the He/Con_1a is 121 % of control GpH7-A5/GpH7-B3/GpL16-k0 (=100).

With B5, the He/Con_1a was 116 % of control GpH7-A5/GpH7-B3/GpL16-k0 (=100).

With B6, the He/Con_1a is 100 % of control GpH7-A5/GpH7-B3/GpL16-k0 (=100).

Take B7: the He/Con_1a was 105 % of control GpH7-A5/GpH7-B3/GpL16-k0 (=100).

As to B8, the He/Con_1a was 113 % of control GpH7-A5/GpH7-B3/GpL16-k0 (=100).

On to B9, for which the He/Con_1a is 104 % of control GpH7-A5/GpH7-B3/GpL16-k0 (=100).

Take B10: the He/Con_1a is 114 % of control GpH7-A5/GpH7-B3/GpL16-k0 (=100).

Take B11: the He/Con_1a is 103 % of control GpH7-A5/GpH7-B3/GpL16-k0 (=100).

Regarding B12, the He/Con_1a was 102 % of control GpH7-A5/GpH7-B3/GpL16-k0 (=100).

For B13, the He/Con_1a is 103 % of control GpH7-A5/GpH7-B3/GpL16-k0 (=100).

Regarding B14, the He/Con_1a is 102 % of control GpH7-A5/GpH7-B3/GpL16-k0 (=100).

Regarding B15, the He/Con_1a was 102 % of control GpH7-A5/GpH7-B3/GpL16-k0 (=100).

B16: the He/Con_1a was 112 % of control GpH7-A5/GpH7-B3/GpL16-k0 (=100).

The target in a further assay is T2, FcγRIIb extracellular domain with C-terminal His tag (human, UniProt P31994 43-217).
T2 construct: extracellular domain; soluble receptor expressed in FreeStyle293 cells, used as analyte in Biacore; also called FcgRIIb; 2b; not shown: His tag attached to the C terminus
T2 sequence (looked up): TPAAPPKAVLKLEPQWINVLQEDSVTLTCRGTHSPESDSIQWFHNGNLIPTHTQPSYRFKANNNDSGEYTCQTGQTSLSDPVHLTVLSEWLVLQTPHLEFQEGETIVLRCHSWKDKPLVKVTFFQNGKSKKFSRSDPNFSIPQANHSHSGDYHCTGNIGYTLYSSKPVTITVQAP
Described as above.
Turning to B1, the He/Con_2b was 70.4 % of control GpH7-A5/GpH7-B3/GpL16-k0 (=100).

In the case of B2, the He/Con_2b was 88.2 % of control GpH7-A5/GpH7-B3/GpL16-k0 (=100).

As for B3, the He/Con_2b was 56.9 % of control GpH7-A5/GpH7-B3/GpL16-k0 (=100).

With B4, the He/Con_2b was 88.4 % of control GpH7-A5/GpH7-B3/GpL16-k0 (=100).

B5: the He/Con_2b was 81.1 % of control GpH7-A5/GpH7-B3/GpL16-k0 (=100).

For B6, the He/Con_2b is 65.2 % of control GpH7-A5/GpH7-B3/GpL16-k0 (=100).

As to B7, the He/Con_2b was 77.4 % of control GpH7-A5/GpH7-B3/GpL16-k0 (=100).

For the molecule B8, the He/Con_2b is 83.5 % of control GpH7-A5/GpH7-B3/GpL16-k0 (=100).

On to B9, for which the He/Con_2b is 85.8 % of control GpH7-A5/GpH7-B3/GpL16-k0 (=100).

As to B10, the He/Con_2b was 87.5 % of control GpH7-A5/GpH7-B3/GpL16-k0 (=100).

In the case of B11, the He/Con_2b was 89.6 % of control GpH7-A5/GpH7-B3/GpL16-k0 (=100).

On to B12, for which the He/Con_2b was 68.6 % of control GpH7-A5/GpH7-B3/GpL16-k0 (=100).

As for B13, the He/Con_2b is 66.8 % of control GpH7-A5/GpH7-B3/GpL16-k0 (=100).

As to B14, the He/Con_2b is 63.1 % of control GpH7-A5/GpH7-B3/GpL16-k0 (=100).

Consider B15, for which the He/Con_2b is 65.4 % of control GpH7-A5/GpH7-B3/GpL16-k0 (=100).

B16: the He/Con_2b is 66.8 % of control GpH7-A5/GpH7-B3/GpL16-k0 (=100).

The target in a further assay is T3, FcγRIIa H (human, UniProt P12318 34-217).
T3 construct: extracellular domain; also called FcγRIIa type H; 2aH
T3 sequence (looked up): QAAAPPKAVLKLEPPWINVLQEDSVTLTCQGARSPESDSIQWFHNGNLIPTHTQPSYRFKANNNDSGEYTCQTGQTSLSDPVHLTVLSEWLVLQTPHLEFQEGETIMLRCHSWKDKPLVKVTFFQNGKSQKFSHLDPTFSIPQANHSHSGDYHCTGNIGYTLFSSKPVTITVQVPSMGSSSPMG
In words: SPR (Biacore), relative binding vs GpH7-A5/GpH7-B3/GpL16-k0. The protocol: (§1) The heterodimerized antibodies He Abs in which one of the H chains was introduced with an alteration were assayed for their binding activities to each activating FcγR and inhibitory FcγR according to the method described in Example 4. […] The activating FcγRs in FIGS. 26, 27, 28, and 29 are FcγRIa, FcγRIIa (R), FcγRIIa (H), and FcγRIIIa, respectively.
(§2) Analysis of interaction between objective antibody and the FcγR was carried out using Biacore T100 (GE Healthcare). HBS-EP+ (GE Healthcare) was used as the running buffer, and the measurement temperature was set to 25° C. Chips produced by immobilizing the antigen peptide by the amine coupling method to a Series S Sencor Chip CM5 (GE Healthcare), or alternatively, chips produced by allowing preliminarily biotinylated antigen peptides to interact with and immobilize onto a Series S Sensor Chip SA (certified) (GE Healthcare) were used. Antibodies of interest were captured onto an antigen peptide-immobilized chip, and allowed to interact to each FcγR diluted with running buffer. To regenerate and repeatedly use the chip, the antibodies captured on the chip were washed off by reacting 10 mM glycine-HCl, pH 1.5.
For the molecule B17, the He/Con_2aH was 85.7 % of control He Ab (=100).

B18: the He/Con_2aH was 58.5 % of control He Ab (=100).

A further assay concerns the target T4, FcγRIIb (human, UniProt P31994 43-217).
T4 construct: extracellular domain; also called 2b
T4 sequence (looked up): T2 sequence (looked up)
The assay is described as above. The protocol: as §1, §2
On to B17, for which the He/Con_2b was 137 % of control He Ab (=100).

Take B18: the He/Con_2b was 199 % of control He Ab (=100).

Values taken from US20180155451A1 (published 2018).
